Experimental data taken from US20240409645A1.
Substitutions are numbered along the chain they refer to.

T1: mouse IL-2Rβ (mouse) (UniProt P16297)
T1 sequence (looked up): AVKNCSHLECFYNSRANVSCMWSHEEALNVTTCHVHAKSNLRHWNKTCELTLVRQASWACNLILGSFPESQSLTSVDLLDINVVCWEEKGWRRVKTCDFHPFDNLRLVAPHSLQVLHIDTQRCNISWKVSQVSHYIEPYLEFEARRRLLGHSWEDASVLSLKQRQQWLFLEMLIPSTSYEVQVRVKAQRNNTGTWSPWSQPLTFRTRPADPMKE

T2: mouse IL-2Rγ (mouse) (UniProt P34902)
T2 sequence (looked up): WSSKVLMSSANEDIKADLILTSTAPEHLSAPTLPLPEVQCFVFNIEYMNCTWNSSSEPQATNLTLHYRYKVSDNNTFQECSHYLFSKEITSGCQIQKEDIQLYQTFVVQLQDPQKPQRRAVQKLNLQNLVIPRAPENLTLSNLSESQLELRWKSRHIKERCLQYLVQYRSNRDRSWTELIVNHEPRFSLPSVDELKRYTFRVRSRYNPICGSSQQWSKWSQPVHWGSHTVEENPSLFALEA

B1: FJ1427 P035MP03D11 (VHH)
VHH: QVQLVESGGGLVQAGGSLRLSCAASGRTFSTTDVGWFRQAPGKEREFVAAITWSSHSTLYADSVEGRFTVTRENAKNTVYLQMNSLKPEDTAVYYCAAVRRGWAVVRTEGAYDFWGQGTQVTVSA
B2: FJ1427_P035MP03E11 (VHH)
VHH: EVQLVESGGGLVQAGGSLRLSCVVSGDVFVRYTMAWFRQAPGKEREFVAAVTDSGRTTEYVDSVKGRFTVSRDNAKNTVYLQMNNLEPEDTAVYYCAANTDYFQIRSVDNNAWGQGTQVTVSS
B3: FJ1427 P035MP03F11 (VHH)
VHH: QVQLVESGGGLAQAGGSLRLSCAASGRTFSQDAKAWFRQAPGKEREFVAAITWSGRDTDYADSVKGRFTIARDNAKNTVYLQMDSLKPEDTAVYYCAVYPQGTIGPYFRSSNHYDYWGQGTQVTVSS
B4: FJ1427 P035MP03B12 (VHH)
VHH: B2 VHH with V23A, V24A, T58A, E59D, E87K, V108L, N110R, A112T
B5: FJ1427 P035MP03C12 (VHH)
VHH: QVQLVESGGGLVQAGGSLRLSCAASGRAFSTYSMGWFRQTPGKEREFVAIISESGGIIDYGDSVKGRFTLSRDNAKNTVSLQMSSLQPEDTAVYYCAAARDWFARTAYQYDYWGQGTQVTVSA
B6: FJ1427 P035MP06G01 (VHH)
VHH: EVQLVESGGGLVQAGDSLRLSCVVSGRGFSTYTMGWFRQAPGKEREFVAAITWSTGRTSYADSVKGRFTISRENAENTVYLQMNSLELEDTAVYYCATDQVLWTTRPRDMRYWGQGTQVTVSF
B7: FJ1427_P035MP06B02 (VHH)
VHH: B2 VHH with E1Q, E87K
B8: 27-MP04G01 (VHH)
VHH: QVQLVESGGGLVQAGGSLTLSCAAPGRTFGTDVVGWFRQAPGKEREFVASISRSGDGIYYDDSVKGRFTISRNNAWNTVNLQMNSLKVEDTAVYYCAAGDGWSTYDYWGQGTQVTVSS
B9: 29-MP04H02 (VHH)
VHH: QVQLVESGGGLVQAGGSLRLACVASGLTFDNYYMGWFRQAPGKEREFVAGIIWNGDHTAYADSIKGRFTISRDNAKNTAYLRMNSLKPEDTAVYYCAATFWIERATTPDIGQYAYWGQGTQVTVSS
B10: 30-MP04C03 (VHH)
VHH: EVQLVESGGGWVQDGGSLRLSCALSGRTFVRGIMGWFRQAPGKEREFVARIIWHINSTRYADSVKGRFTISRDSAKNTMYLQMDSLRPEDTAVYYCAARDRYGSGNSLSPSAYDYWGQGTQVTVSS
B11: 32-MP04A08 (VHH)
VHH: QVQLVESGGGLVQAGGSLRLSCAASGRTFGSTAVGWFRQVPGKEREFVSAINRSGSATTYADSVKGRFTISRDNAKNTVYLQMNSLTPEDTGVYYCAADSLPYGRPYYFQRSAGEYDYWGQGTQVTVSS
B12: 33-MP04C09 (VHH)
VHH: QLQLVESGGGLVQAGGSLRLSCAASGPTFSRVAVGWFRQAPGKEREFVAAVNRPATMTKYADSVKGRFTVSRDNAKNTVDLQMNSMKPEDTAVYYCAADSVPYGRPYYWQTSAGDYDYWGQGTQVTVSS
B13: 35-MP07G01 (VHH)
VHH: QVQLQESGGGLVQGGGSLRLSCAASGGIFSSYAMGWFRQAPGKEREFVAAISRSGRSTNYADSVKGRFTISRDNAKSTVYLQMNSLKPEETAVYYCAAGRYYNSAYDPSPGDFGSWGHGTQVTVSS
B14: FJ1427_P035MP04C01 (VHH)
VHH: B8 VHH with P25S, G30S, S85N
B15: FJ1427_P035MP04B02 (VHH)
VHH: QVQLVESGGGWVQVGESLRLSCAPSGRTFVSGIMGWFRQTPGKEREFVARIILNNNSTRYTDSVKGRFTISRDSAKNTMYLQMNTLRPEDTAVYYCAARDRYGSGNSLSPSAYDYWGQGTQVTVSS
B16: FJ1427_P035MP04E02 (VHH)
VHH: B15 VHH
B17: FJ1427_P035MP04F02 (VHH)
VHH: QLQLVESGGGLVQAGGSLTLSCAASGRTFSRDVVGWFRQAPGKEREFVASISRSGDGTFYTDSVKGRFTISSRDNAKNTVLLQMNSLKVEDTAVYYCAAGDGWSTYDYWGQGTQVTVSS
B18: FJ1427_P035MP04A03 (VHH)
VHH: B15 VHH with Q1E
B19: FJ1427_P035MP04B03 (VHH)
VHH: QVQLQESGGGLVQAGESLRLSCAASGPTASRVAVAWFRQVPGKEREFVAVVNRPGTMTKYADSVKGRFTISRDSAKNTVYLQMNSLKPEDTAVYYCAADSVPYGRPYYFQTSAGNYDYWGQGTQVTVSS
B20: FJ1427_P035MP04G03 (VHH)
VHH: B15 VHH with Q1E, T40A, N84D, T85S
B21: FJ1427_P035MP04A04 (VHH)
VHH: B19 VHH with Q5V
B22: FJ1427_P035MP04E04 (VHH)
VHH: B15 VHH with Q1E, A23V, T40A, N55S, T85S
B23: FJ1427_P035MP04C05 (VHH)
VHH: B15 VHH with T40A, N77D
B24: FJ1427_P035MP04B06 (VHH)
VHH: B15 VHH with V2L, A23V, T40A
B25: FJ1427_P035MP04A07 (VHH)
VHH: B15 VHH with V2L, T40A, T61I, N84D, T85S
B26: FJ1427_P035MP04B07 (VHH)
VHH: B15 VHH with Q1E, M79L
B27: FJ1427_P035MP04G07 (VHH)
VHH: B15 VHH with T40A
B28: FJ1427_P035MP04D08 (VHH)
VHH: B19 VHH with Q5V
B29: FJ1427_P035MP04G08 (VHH)
VHH: B15 VHH with T40A, N84D, T85S
B30: FJ1427_P035MP04H08 (VHH)
VHH: B19 VHH with Q1E, Q5V
B31: FJ1427_P035MP04A09 (VHH)
VHH: QVQLVESGGGLVQAGGSLRLSCAASGRTFGAVAVGWFRQVPGKEREFVAAINRNGSATKYADSAKGRFTISRDNAESPVYLQMNSLKPEDTAIYYCAADSLPYGRPYYFQTSAGEYDYWGQGTQVTVSS
B32: FJ1427_P035MP04D09 (VHH)
VHH: B15 VHH with S31R, T40A, N55S, T61I, T85S
B33: FJ1427_P035MP04F09 (VHH)
VHH: B15 VHH with S31R, T40A, Y80W, N84D, T85S
B34: FJ1427_P035MP04G09 (VHH)
VHH: B12 VHH with L2V, V5Q, A40V, V70I, W109F, D115E

What follows are binders tested against T1, mouse IL-2Rβ (mouse) (assay: P.E. binding ELISA on coated protein).

Binder | P.E. binding ELISA OD
B1 | 0.049 OD450 nm
B2 | 0.05 OD450 nm
B3 | 0.048 OD450 nm
B4 | 0.049 OD450 nm
B5 | 0.047 OD450 nm
B6 | 0.049 OD450 nm
B7 | 0.048 OD450 nm

What follows are binders tested against T2, mouse IL-2Rγ (mouse) (assay: PE binding ELISA, periplasmic extract on coated protein).

Binder | OD (PE binding ELISA)
B8 | 0.048 OD450 nm
B9 | 0.05 OD450 nm
B10 | 0.048 OD450 nm
B11 | 0.05 OD450 nm
B12 | 0.047 OD450 nm
B13 | 0.045 OD450 nm
B14 | 0.049 OD450 nm
B15 | 0.048 OD450 nm
B16 | 0.049 OD450 nm
B17 | 0.049 OD450 nm
B18 | 0.052 OD450 nm
B19 | 0.048 OD450 nm
B20 | 0.049 OD450 nm
B21 | 0.05 OD450 nm
B22 | 0.048 OD450 nm
B23 | 0.047 OD450 nm
B24 | 0.048 OD450 nm
B25 | 0.049 OD450 nm
B26 | 0.047 OD450 nm
B27 | 0.049 OD450 nm
B28 | 0.048 OD450 nm
B29 | 0.049 OD450 nm
B30 | 0.053 OD450 nm
B31 | 0.049 OD450 nm
B32 | 0.048 OD450 nm
B33 | 0.049 OD450 nm
B34 | 0.05 OD450 nm
